Results as given in publication PMC11880434 (Nature Communications, 2025).

What was measured:
MbpR = target: T1, MbpR (Lactiplantibacillus plantarum, UniProt F9USQ8); experiment: ITC; type: binding
T1 sequence (F9USQ8 1-306): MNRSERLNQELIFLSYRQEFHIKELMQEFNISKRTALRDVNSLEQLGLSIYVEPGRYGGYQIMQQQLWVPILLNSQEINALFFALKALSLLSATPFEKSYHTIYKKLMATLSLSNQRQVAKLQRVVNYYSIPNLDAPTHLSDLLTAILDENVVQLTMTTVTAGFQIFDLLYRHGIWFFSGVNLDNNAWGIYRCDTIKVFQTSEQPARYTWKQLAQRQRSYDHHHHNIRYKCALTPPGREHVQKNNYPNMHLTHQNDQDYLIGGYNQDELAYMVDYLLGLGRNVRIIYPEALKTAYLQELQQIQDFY

[1] = target: mucin binding domain of MbpA (L. plantarum WCFS1); experiment: MST
[2] = target: mucin binding domain of MbpB (L. plantarum WCFS1); experiment: MST

Nc1nc2c(ncn2[C@@H]2O[C@@H]3CO[P@](=O)(O)O[C@H]4[C@@H](O)[C@H](n5cnc6c(=O)[nH]c(N)nc65)O[C@@H]4CO[P@](=O)(O)O[C@H]3[C@H]2O)c(=O)[nH]1 [c-di-GMP]
Kd (MbpR): 220 nM

mucin (natural protein)
Kd [1]: 530 nM
Kd [2]: 690 nM
